# Measured values: the nanobody polyreactivity screen of Harvey et al. (2022)
# Experiment: yeast display, Sf9 membrane polyspecificity reagent, FACS + sequencing; frameworks hold sequencing errors
# Method in brief: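 A nanobody's polyreactivity label depends on the gate it was sorted from. Yeast display cells were stained with 10% biotinylated, detergent-solubilized Sf9 membrane reagent for 1 hour at 4 °C, enriched on streptavidin microbeads and sorted by FACS. The low and high (top ~1%) gates were set on anti-HA fluorescence for expression and streptavidin fluorescence for reagent binding.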
row,Sequence,polyreactivity (PSR sort gate)
1,QVQLVESGGGLVQAGGSLRLSCAASGSTFYPYAMGWYRQAPGKERELVAAINLRADSTNYADSVKGRFTISRDNAKNTVYLQMNSLKPEDTAVYYCAARVSYRSGRRPLWAYNSWGQGTQVTVSS,high polyreactivity
2,QVQLVESGGGLVQAGGSLRLSCAASGSTFYPYAMGWYRQAPGKERELVAAINWSGGTTYYADSVKGRFTLSRDNAKNTVYLQMNSLKPEDTAVYYCAAVGYPPGYGYWGQGTQVTVSS,low polyreactivity
3,QVQLVESGGGLVQAGGSLRLSCAASGSTFYPYAMGWYRQAPGKERELVAAISSGGSTSYADSVKGRFTISRENAKNTVYLQMNSLKPEDTAVYYCNASSPVAVPVYDYDYWGQGTQVTVSS,low polyreactivity
4,QVQLVESGGGLVQAGGSLRLSCAASGSTFYPYAMGWYRQAPGKERELVAAITSGGRTYYADSVKGRFTISRDNAKNTVYLQMNSLKPEDTAVYYCAAVYINRLTSKYEYWGQGTQVTVSS,high polyreactivity
5,QVQLVESGGGLVQAGGSLRLSCAASGSTFYPYAMGWYRQAPGNERELVAALDRGGSTSYADSVKGRFTISRDNAKNTVYLQMIRLKPEDTAVYYCAVARGGRRKYEYWGQGTQVTVSS,low polyreactivity
6,QVQLVESGGGLVQAGGSLRLSCAASGSTFYPYDMGLYRQAPGKERELVATITSTGGSTNYADSVKGRFTISRDNAQNTVYLQMNSLKPEDTAVYYCAKDWNDDQHSWDTPFDYWGQGTHVTVSS,low polyreactivity
7,QVQLVESGGGLVQAGGSLRLSCAASGSTFYPYGMGWYRHAPGKERDLVAAISKRGGSTYYADSVKGRFTISRDNAKNTVYLQMNSLKPEDTAVYYCAAYGAGKFWAEHNYWGQGTQVTVSS,high polyreactivity
8,QVQLVESGGGLVQAGGSLRLSCAASGSTFYPYPMGWYRQAPGKERELVATISSSGGTTSYADSVKGRFTISRDNAKNTVYLQMNSLKPEDTAVYYGAARGYGSLHHVLGHHDSWGQGTQVTVSS,low polyreactivity
9,QVQLVESGGGLVQAGGSLRLSCAASGSTFYQYAMGWYRQAPGKERELVAAISKSGGSTYYADSVKGRFTISRDNAKNTVYLQMNSLKPEDTAVYYCATRWIKGRNMDYWGQGTQVTVSS,high polyreactivity
10,QVQLVESGGGLVQAGGSLRLSCAASGSTFYQYAMGWYRQAPGKERELVAAISRSGSTNYADSVKGRFTISRDNAKNTVYLQMNSLKPEDTAVYDCAARLGTRQYKMDYWGQGTQVTVSS,high polyreactivity
11,QVQLVESGGGLVQAGGSLRLSCAASGSTFYQYAMGWYRQAPGKERELVARITYNGGRTYYADSVKGRFTISRDNAKNTVYLQMNSLKPEDTAVYYCAARRWSTGGYGQFDYWGQGTQVTVSS,low polyreactivity
12,QVQLVESGGGLVQAGGSLRLSCAASGSTFYQYVMGWYRQAPGKERELVADITNGGSTYYADSVKGRFTISRDNAKNTVYLQMNSLKPEDTAVYYCAADGGYYWYTYWYGGLYYWGQGTQVTVSS,high polyreactivity
13,QVQLVESGGGLVQAGGSLRLSCAASGSTFYRNAMGWYIQAPGKEREFVAAISYSGGGTYYADSVKGRFTISRDNAKNTVYLQMNSLKPEETAVYYCAADVSGWEYDYWGQVTQVTVSS,low polyreactivity
14,QVQLVESGGGLVQAGGSLRLSCAASGSTFYRNAMGWYRQAPGKERAFVAAISFRGGGTYADSVKGRFTISRDNAKNTVYLQMNSLKPEDTAVYYCAADHLSYPRRYEYWGQGTQVTVSS,low polyreactivity
15,QVQLVESGGGLVQAGGSLRLSCAASGSTFYRNAMGWYRQAPGKEREFVAAISFRGGGTYADSVKGRFTISRDNAKNTVYLQMNSLIPEDTAVYYCAADHLSYRRRYEYWGQGTQVTVSS,low polyreactivity
16,QVQLVESGGGLVQAGGSLRLSCAASGSTFYRNAMGWYRQAPGKERELVAAISGSDGSTYYADSVKGRFTISRDNAKNTVYLQMNSLKPEDTAVYYCNARRWWVIRDYWGQGTQVTVSS,high polyreactivity
17,QVQLVESGGGLVQAGGSLRLSCAASGSTFYRNAMGWYRQAPGKERELVAAISRRSGTTYYADSVKGRFTISRDNAKNTVYLQMNSLKPEDTSVYYCATVRGGYDYWGQGTQVTVSS,high polyreactivity
18,QVQLVESGGGLVQAGGSLRLSCAASGSTFYRNAMGWYRQAPGKERELVAAISSTGGSTYYADSVKGRFTISRDNAKNTVYLQMNSLKPEDTAVYYCARDYSWLTRGSDYDYWGQGTQVTVSS,low polyreactivity
19,QVQLVESGGGLVQAGGSLRLSCAASGSTFYRNAMGWYRQAPGKERELVAAISTSGGSTYYADSVKGRFTISRDNAKNTVYLQMNSLKPEDTAVYYCATDSYYFDVMYGWKEYDYWGQGTQVTVSS,high polyreactivity
20,QVQLVESGGGLVQAGGSLRLSCAASGSTFYRNTMGWYRQAPGKERELVAAIRRSGSSTYYADSVKGRFTISRDIAKNTVYLQMNSLKREDTAVYYCAKEGLSYRYYYWGQGTQVTVSS,high polyreactivity
21,QVQLVESGGGLVQAGGSLRLSCAASGSTFYRYAMGWSRQAPGKERELVAAITWRGGSTYYADSVKGRFTISRDNAKNTLYLQMNSLKPEDTAVYYCAADSYYYRPYHYGYDYWGQGTQVTVSS,high polyreactivity
22,QVQLVESGGGLVQAGGSLRLSCAASGSTFYRYAMGWYRQAPGKEREFVAAISGSGGSTRYADSVKGRFTISRDNAKNSVFLQMNSLKPEDTAVYYCAARSRYGYSTFDYWGHGTQVTVSS,high polyreactivity

row,Sequence,polyreactivity (PSR sort gate)
1,QVQLVESGGGLVQAGGSLRLSCAASGSTFYRYAMGWYRQAPGKERELVAAISTSGGRTYYADSVKGRFTISRDNAKNTVYLQMNSLKPEDTAVYYCAAPYQYGYWGQGTQVTVSS,high polyreactivity
2,QVQLVESGGGLVQAGGSLRLSCAASGSTFYRYAMGWYRQAPGKERELVAAITRGGGNTYYADSVKGRFTISRDNAKNTVYLQMNSLKPEDTAVYYCNTDPTLRSRVGIWGFDYWGQGTQVTVSS,high polyreactivity
3,QVQLVESGGGLVQAGGSLRLSCAASGSTFYRYAMGWYRQAPGKERELVAAITRTGGSTYADSVKGRFTISRDNAKNTVYLQMNSLKPEDTAVYYCAVQRYYVSSISPFYYWGQGTQVTVSS,low polyreactivity
4,QVQLVESGGGLVQAGGSLRLSCAASGSTFYRYAMGWYRQAPGKERELVAAITRTTARTYYADSVKGRFTISRDYAKNTVYLQMNSLKPEDTAVYYCAADLYSWTWSGFRQYDYWGQGTQVTVSS,high polyreactivity
5,QVQLVESGGGLVQAGGSLRLSCAASGSTFYRYAMGWYRQAPGKERELVARITWSAGRTYYADSVKGRFTISRDTAKNTVYLQMNSLKPEDTAVYYCAADSGGFASNKRMDYWGQGTQVTVSS,high polyreactivity
6,QVQLVESGGGLVQAGGSLRLSCAASGSTFYRYPMGWYRQAPGKERELVAGITGSGRRTYYADSVKGRFTISRDNAKNTVYFQMNSVKPEDTAVYYCNKRRASWSPAGGTYNYWGQGTQVTVSS,low polyreactivity
7,QVQLVESGGGLVQAGGSLRLSCAASGSTFYRYTMGWYRQAPGTERELVSAISRSGGSTYYADSVKGRFTISRDNAKNTVYLQMNSLKPEDTAVYYCATYGDFKSGYRYGYWGQGTQVTVSS,high polyreactivity
8,QVQLVESGGGLVQAGGSLRLSCAASGSTFYRYVMGWYRQAPGKERELVAAITWRGGTTYYADSVKGRFTISRDNAKNTVYLQMNRLNPEDTAVYYCNADRYLGVSEYKTYEYEYWGQGTQVTVSS,low polyreactivity
9,QVQLVESGGGLVQAGGSLRLSCAASGSTFYSNAMGWYRPAPGKERELVASITRGGSTNYADSVKGRFTISRDNAKNTVYLQMNSLKPEDTAVYYCNAERRYYFYRYDYWGQGTQVTVSS,high polyreactivity
10,QVQLVESGGGLVQAGGSLRLSCAASGSTFYSNAMGWYRQAPGKERELVAAISYSGGRTYYADSVKGRFTISRDNAKNTVFLQMNSLKPEDTAVYYCNKAYRRYIWHMDYWGQGTQVTVSS,high polyreactivity
11,QVQLVESGGGLVQAGGSLRLSCAASGSTFYSNAMGWYRQAPGKERELVASISWSSGSTYYADSVKGRFTISRDNAKNTVYLQMNSLKPDDTAVYYCATDAGGPYRFGYWGQGTQVTVSS,low polyreactivity
12,QVQLVESGGGLVQAGGSLRLSCAASGSTFYSYAMGWSRQAPGKERELVAAITRGGRTYYADSVKGRFTISRDNAKNTVYLQMNSLKPEDTAVYYCNVVTKFTGRGYDYWGQGTQVTVSS,high polyreactivity
13,QVQLVESGGGLVQAGGSLRLSCAASGSTFYSYAMGWYRQAPGKEREFVAAIRYSGGRTYADSVKGRFSISRDNAKNTVYLQMNSLKPEDTAVYYCAAVYYSYRWPYDYWGQGTQVTVSS,high polyreactivity
14,QVQLVESGGGLVQAGGSLRLSCAASGSTFYSYAMVWYRPARGPERELVAAITSGGRTYYADSVKGRFTISRDNAKNTVYLQMNCLKPEDTAVYYCSADLPVFGGYRSNRFGYWGQGTQVTVSS,high polyreactivity
15,QVQLVESGGGLVQAGGSLRLSCAASGSTFYSYGMGWYRPAPGKERELVAAITKRVGRTYYADSVKGRFTISRDNAKNTVYLQMNSLKPEDTAVYYCAARAWTRSVPYGFYYWGQGTQVTVSS,high polyreactivity
16,QVQLVESGGGLVQAGGSLRLSCAASGSTFYSYVIGWYRQAPGRESELVAVITSGGSTTYADSVNGRFTISRDNAKNTVYLEMNSLIPEDTAVYYCNAAYYNTDTQKVTFDYWGQGTQVTVSS,low polyreactivity
17,QVQLVESGGGLVQAGGSLRLSCAASGSTFYTNAMGWYRQAPGKERELVAAINRSGGRTYYADSVKGRFTISRDNAKNTVYLQMISLKPEDTAVYYCAARYPLRISTDTARDYYWGQGTQVTVSS,low polyreactivity
18,QVQLVESGGGLVQAGGSLRLSCAASGSTFYTNAMGWYRQAPGTERELVAAINYSGGSTYYADSVKGRFTISRDNAKNTVYLQMNSQTPEDTAVYYCATDLHWLVTKYGYWGQGTQVTVSS,low polyreactivity
19,QVQLVESGGGLVQAGGSLRLSCAASGSTFYTNVMGWYRQAPGKDRELVAAISYNSGSTSYADSVKGRFTISRDNAKNTVYLQMNSLKPEDTAVYYCAVRIRLRRARLSYDYWGQGTQVTVSS,high polyreactivity
20,QVQLVESGGGLVQAGGSLRLSCAASGSTFYTYAMGWYRQAPGKERELVAAITSSGTTNYADSVKGRFTISRDNAKNTVYLQMNSLKPEDTAVYYCAKRSYGGTLHYAFDSWGQGTQVTVSS,low polyreactivity
21,QVQLVESGGGLVQAGGSLRLSCAASGSTFYTYDMGWYRQAPGKERELVASITSGGSTNYADSVKGRFTISRDNAKNTVYFQMYCMKPVDTAVYYCAVGTYTIYSGTLYDYKYYWGQGTVVTVSS,low polyreactivity
